Measured values taken from publication PMC3644210 (Biochemical pharmacology, 2012).
Ends that are not written are not given here.

Tests used:
[1] = comparison value; source not explicitly stated; cited from earlier work
Kv1.1 = Kv1.1 (Homo sapiens, UniProt Q09470); assay type: cell-based
Kv1.5 (wildtype) = Kv1.5 (wildtype) (UniProt P22460)
Kv1.1 E353T = Kv1.1 E353T (UniProt Q09470)
Kv1.1 Y379V = Kv1.1 Y379V (UniProt Q09470)
Kv1.5 R487T = Kv1.5 R487T (UniProt P22460)
Chain of Kv1.5 R487T (P22460 whole entry R487T): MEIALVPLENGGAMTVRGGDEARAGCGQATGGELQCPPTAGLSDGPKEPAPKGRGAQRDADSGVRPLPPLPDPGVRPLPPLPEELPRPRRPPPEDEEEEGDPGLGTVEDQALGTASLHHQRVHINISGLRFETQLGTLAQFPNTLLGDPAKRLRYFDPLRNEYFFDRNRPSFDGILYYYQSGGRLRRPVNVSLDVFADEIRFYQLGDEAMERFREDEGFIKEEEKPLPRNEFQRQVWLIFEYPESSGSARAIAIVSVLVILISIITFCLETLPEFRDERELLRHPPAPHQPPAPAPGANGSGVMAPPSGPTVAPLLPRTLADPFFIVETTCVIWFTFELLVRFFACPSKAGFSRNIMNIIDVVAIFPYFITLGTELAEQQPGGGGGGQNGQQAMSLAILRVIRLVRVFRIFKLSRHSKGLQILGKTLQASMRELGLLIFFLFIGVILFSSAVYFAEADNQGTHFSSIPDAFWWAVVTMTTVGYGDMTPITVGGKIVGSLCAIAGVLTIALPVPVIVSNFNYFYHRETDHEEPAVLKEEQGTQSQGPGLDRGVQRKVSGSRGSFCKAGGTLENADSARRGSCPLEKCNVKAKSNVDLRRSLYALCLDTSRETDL

Chain of Kv1.1 (Q09470 whole entry): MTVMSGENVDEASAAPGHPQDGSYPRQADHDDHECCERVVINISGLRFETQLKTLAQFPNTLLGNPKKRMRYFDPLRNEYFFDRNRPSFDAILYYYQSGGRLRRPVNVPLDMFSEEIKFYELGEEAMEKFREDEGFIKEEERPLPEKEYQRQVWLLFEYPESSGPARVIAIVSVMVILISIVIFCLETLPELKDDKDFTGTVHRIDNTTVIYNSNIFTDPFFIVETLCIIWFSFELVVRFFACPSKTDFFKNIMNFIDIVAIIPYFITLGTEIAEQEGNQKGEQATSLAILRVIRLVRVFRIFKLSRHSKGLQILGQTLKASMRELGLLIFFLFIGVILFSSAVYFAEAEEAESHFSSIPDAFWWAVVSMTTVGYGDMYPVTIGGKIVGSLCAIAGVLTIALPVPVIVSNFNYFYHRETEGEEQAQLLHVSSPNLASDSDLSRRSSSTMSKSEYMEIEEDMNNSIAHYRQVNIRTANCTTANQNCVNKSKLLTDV
Chain of Kv1.1 Y379V (Q09470 whole entry Y379V): as the sequence (Q09470 whole entry) above, with Y379V counted along it
Chain of Kv1.5 (wildtype) (P22460 whole entry): as the sequence (P22460 whole entry R487T) above, with T487R counted along it
Chain of Kv1.1 E353T (Q09470 whole entry E353T): as the sequence (Q09470 whole entry) above, with E353T counted along it

Molecule: OcyC8: κ-KTx2 scorpion toxin from Opisthacanthus cayaporum (YDACVNACLEHHPNVRECEEACKNPVPP; UniProt P86110 43-70, looked up)
- pI of OcyC8 [1]: 4.92

Molecule: CC[N+](CC)(CC)CC [TEA, Tetraethylammonium]
- reduction of the K+ current by TEA (Kv1.1; 0.4 mM TEA, n = 6, 250-ms steps to +10 mV): 55 ± 2%
- IC50 (Kv1.1; read-out: IC50 of TEA on Kv1.1, Kv1.1, source of the IC50 not stated): 400 µM

B1: Hl15-1-1 (Heterometrus laoticus toxin) (peptide)
peptide: SCKKECSGSRRTKKCMQKCNREHGH-NH2
modifications: ends and bridges not checked
- percent inhibition of the K+ current by 30 μM Hl15-1-1 (whole-cell patch clamp) (Kv1.5 (wildtype)): 1%
- percent inhibition of the K+ efflux by 30 μM Hl15-1-1 (whole-cell patch clamp) (Kv1.1 E353T): 32%
- percent inhibition of the K+ efflux by 30 μM Hl15-1-1 (whole-cell patch clamp) (Kv1.1 Y379V): 6.1%
- percent inhibition of the K+ current by 30 μM Hl15-1-1 (whole-cell patch clamp) (Kv1.5 R487T): 26.3%
